Test results taken from the supplement of paper PMC9170038.

System: MS2 coat protein
Assay: apparent KD of MS2 coat protein; designed switch direction (-1 OFF switch, 1 ON switch): -1; higher = weaker reporter binding
Method in brief: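 Normalised cluster fluorescence was curve-fitted, and each design's median over clusters is its apparent KD. Before this, SNAP-549-labelled MS2 coat protein was titrated from 0.7 or 1.5 nM, doubling to 3 µM, over RNA switches transcribed on Illumina chips by stalled E. coli RNA polymerase. Titrations had no input, 200 uM small-molecule ligand, or an oligonucleotide input, and steps lasted 0.8–1.5 h (lowest) to 10–20 min (highest).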

[1] = Eterna round: R95, input ligand: microRNA oligo, concentration not stated
[2] = Eterna round: R95, input ligand: FMN 200 uM
[3] = Eterna round: R95, input ligand: none
[4] = input ligand: microRNA oligo, concentration not stated

Sequence | apparent KD of MS2 coat protein [1] | apparent KD of MS2 coat protein (input ligand: FMN 200 uM) | apparent KD of MS2 coat protein (input ligand: none) | also measured
CUUUUGUGAGGAUAUCAGUAGUAAAUAAAUAAAAUUAUUACUGAGAAGGCACAUGAGGAUCACCCAUGUUCCUC [salish99_ex3_r3_086] (puzzle: Exclusion 4) | 0.0369 µM | – | – | –
UGAUCACAUGAGGAUCACCCAUGUCAGGAUAUCGUCACUGGAGCUGCGGCUCCAGUGACGAGAAGGGAUAUAAU [E1/5-A3] (Eterna round: R97, puzzle: Exclusion 1) | – | 0.293 µM | 0.104 µM | –
GGCAAACAUGAGGAUCACCCAUGUCAGGAUAUUAGGCGAUCGUCGAAAGACGAUAGCCUGAGAAGGGACAUGCC [Eli x1 4.16] (Eterna round: R97, puzzle: Exclusion 1) | – | 0.238 µM | 0.103 µM | –
GUACUGACAGGAUAUACAUGAGGAUCACCCAUGUGCCCUUAUAGAUGCAAAGCAUCUAGUAGAAGGGUCUGUAC [Omei Ex3 Model Bachelor's Dilema v24] (Eterna round: R97, puzzle: Exclusion 3) | – | 0.0328 µM | 0.0269 µM | –
CUUCGUAUAGAGGAUAUAGGUUACUACGGUAUCCUAGAAGGCUGUACAUGAGGAUCACCCAUGUACUUCAGAUC [Exclusion 6 - B - 13:d] (puzzle: Exclusion 6) | 0.0122 µM | – | – | –
UGUCAGUCAGGAUAUGCAUACGUAGACAUGAGGAUCACCCAUGUGACGUGGGACUGGUGUGUAGAAGGGACGAACA [EX5 #79] (Eterna round: R97, puzzle: Exclusion 5) | – | 0.0298 µM | 0.0286 µM | –
CCAGGCGUCUUGGCUCGUCUUAUUUGGAGAGGAUUGAUAACAUGAGGAUCACCCAUGUGUGUGGGAGCGUUGCAGUG [JR_SV3TOV2_Sub019] (puzzle: Sensor v3, turn-off variant 2) | 0.137 µM | – | – | apparent KD of MS2 coat protein [2]: 0.0755 µM; apparent KD of MS2 coat protein [3]: 0.102 µM
GGCAUCGGAGGAUAUACUUAUGGUGAUACCGGAAGCUUUCUACUUGAGGAUCACCCAAGUAGAAGGCCGAUGCC [jl-ex2.4.84 ViennaUCT mod] (Eterna round: R97, puzzle: Exclusion 2) | – | 0.00901 µM | 0.0229 µM | –
AGUACUAACACGAAAGUGUUAGUACAAUAAGCUUGUGUUACAUGAGGAUCACCCAUGUCCUCAUAAGCUCGUCUUAG [Mat - Sensor v3 - Turn-off var 2 - D50] (puzzle: Sensor v3, turn-off variant 2) | 0.351 µM | – | – | apparent KD of MS2 coat protein [2]: 0.0459 µM; apparent KD of MS2 coat protein [3]: 0.0454 µM
AACUCGUUAGGAUAUACCGCCAACGAUACCUCGUGAAACAUACAUGAGGAUCACCCAUGUAGAAGGAGCGAGCA [Vearbe] (puzzle: Exclusion 2) | 0.0157 µM | – | – | –
AGUCCACAUGAGGAUCACCCAUGUCAGGAUAUCUGCUGGAAGAGGGCAGAAAGCCAGGAGAGAAGGGACCUGGG [Usarila] (puzzle: Exclusion 1) | 0.034 µM | – | – | –
CGAAUGUCAGGAUAUCGUGCAUACAACGAAAGUUCUAUGUGCGAGAAGGGACAUGAGGAUCACCCAUGUCUUCG [Omei Ex4 A14] (Eterna round: R97, puzzle: Exclusion 4) | – | 0.0756 µM | 0.0271 µM | –
GUGUAGAUAGGAUAUGCUUUGAGCUUAUGAGAGUAUGCUCGACAUGAGGAUCACCCAUGUAGAAGGGUUUACAC [LRO-Excl2-04] (puzzle: Exclusion 2) | 0.0685 µM | – | – | –
GUGUGACAUGAGGAUCACCCAUGUGAGGAUAUUUAUGUUUGGUUGUUUAGUUGGGCGUGGAGAAGGCGCGUGCG [19% As] (Eterna round: R97, puzzle: Exclusion 1) | – | 0.0656 µM | 0.0851 µM | –
AAAUUGCUAGAGGAUAUCGGAUAGGAUUUAUUACGAGAAGGUUAGACAUGAGGAUCACCCAUGUUCUGUUGGGA [EX6 #24] (Eterna round: R97, puzzle: Exclusion 6) | – | 0.0895 µM | 0.0369 µM | –
AGCCAUGAAGGAUAUACAUGAGGAUCACCCAUGUUGCGGACAGGUUUGAUCGGCGUAGGUAGAAGGUCAAGUAG [Eternabot (L2) Solution 62] (Eterna round: R97, puzzle: Exclusion 3) | – | 0.0282 µM | 0.0221 µM | –
GUAUCGUGAGGAUAUCAUGAUUGACUUAAUUUAUGUCAGCGUGAGAAGGCACAUGAGGAUCACCCAUGUGAUUA [Ex4 - 3 - 6] (puzzle: Exclusion 4) | 0.0205 µM | – | – | –
GCGUACUGAGGAUAUACAUGAGGAUCACCCAUGUGAAGAAGAAAGUAGUGAUGGUUGGGUAGAAGGCAGUAUGC [JR_Ex3_Sub064] (Eterna round: R97, puzzle: Exclusion 3) | – | 0.103 µM | 0.0985 µM | –
UUUUAACAUGAGGAUCACCCAUGUGAGGAUAUCGAAAUUUAUAUUAAUAUUAUUUUUACGAGAAGGCACAUUUU [JMF 50] (puzzle: Exclusion 1) | 0.0992 µM | – | – | –
GACAUGAGGAUCACCCAUGUAAGGGAUGAACUUCUGGGUAGCUAGGAUAUGGCUAUAAAGAUGGACCAGAAGGAGCGGACCCUA [Orlaveceat] (Eterna round: R96, puzzle: Exclusion NG 3) | – | 0.0487 µM | 0.0324 µM | apparent KD of MS2 coat protein [4]: 0.0314 µM
CGGUGCUGAGGAUAUACAUGAGGAUCACCCAUGUGUUCCAGCUAGGUGACUGGCAAAUGUAGAAGGCGGUACUG [JL-ex3-3.36 Brourd mod] (puzzle: Exclusion 3) | 0.0777 µM | – | – | apparent KD of MS2 coat protein [2]: 0.0407 µM; apparent KD of MS2 coat protein [3]: 0.105 µM
ACGCGAGUAGGAGGAUAUUCCGAGCGCGGGCCGGGAGAAGGCCUAGAUCGUGAACAUGAGGAUCACCCAUGUGGGAUGAUCUAA [Ededaranri] (Eterna round: R96, puzzle: Exclusion NG 1) | – | 0.00823 µM | 0.313 µM | apparent KD of MS2 coat protein [4]: 0.0949 µM
AUUAUAAUAUAGGAUAUCGAAAUAAUUAUUUAACGAGAAGGAUGAACAUGAGGAUCACCCAUGUGGUAUCAUGG [Mat - Exclusion 6 - JL Mod - D33] (puzzle: Exclusion 6) | 0.36 µM | – | – | apparent KD of MS2 coat protein [2]: 0.16 µM; apparent KD of MS2 coat protein [3]: 0.224 µM
AGAAAGGCCCAUGGCCGCAAGCUUUUUGCUUGUCUUACCACAUGAGGAUCACCCAUGUGACAUGGGCUCCUGAUAAU [Atveuser] (puzzle: Sensor v3, turn-off variant 2) | 0.0104 µM | – | – | apparent KD of MS2 coat protein [2]: 0.0143 µM; apparent KD of MS2 coat protein [3]: 0.0133 µM
GCACGGUUGGUAGGAUAUCAUUGCGAUUAGCUAUGAGAAGGACCACAUGAGGAUCACCCAUGUCCUCUAAUUAGCCUGCCGUGC [Eli exng1 - 014] (Eterna round: R96, puzzle: Exclusion NG 1) | – | – | – | apparent KD of MS2 coat protein [4]: 0.118 µM
GAAAAGGUAGGAUAUACGAAUAAAAAGGGUAGAAAAAAAACACAUGAGGAUCACCCAUGUAGAAGGACCAAAAG [salish99_ex2_r3_085] (puzzle: Exclusion 2) | 0.025 µM | – | – | apparent KD of MS2 coat protein [2]: 0.0677 µM; apparent KD of MS2 coat protein [3]: 0.0244 µM
CCUUGACAUGAGGAUCACCCAUGUGAGGAUAUGAUGCGAUCGUCGAAAGACGAUAGCAUCAGAAGGCACAUAUG [Fiskers Ex 1 - 8] (Eterna round: R96, puzzle: Exclusion 1) | – | 0.0918 µM | 0.0244 µM | apparent KD of MS2 coat protein [4]: 0.0128 µM
AAAUAGCGAGGAUAUACUCCAAUAGCAAAUAUUCCCAUGGCACAUGAGGAUCACCCAUGUAGAAGGCGCAGUAA (Eterna round: R97, puzzle: Exclusion 2) | – | 0.0542 µM | 0.0444 µM | –
